Data as given in paper PMC12624790.

Molecular target: His6-3C-SUMO-Sec22 TMD-thrombin-HiBiT

- percent of substrate extracted from standard liposomes by Msp1 with ATP (split-luciferase extraction assay, 30 min, 30 °C): 10%
B1: Δ1-32 Msp1 (enzyme)
chain: DVESGPLSGKSRESKAKQSLQWEKLVKRSPALAEVTLDAYERTILSSIVTPDEINITFQDIGGLDPLISDLHESVIYPLMMPEVYSNSPLLQAPSGVLLYGPPGCGKTMLAKALAKESGANFISIRMSSIMDKWYGESNKIVDAMFSLANKLQPCIIFIDEIDSFLRERSSTDHEVTATLKAEFMTLWDGLLNNGRVMIIGATNRINDIDDAFLRRLPKRFLVSLPGSDQRYKILSVLLKDTKLDEDEFDLQLIADNTKGFSGSDLKELCREAALDAAKEYIKQKRQLIDSGTIDVNDTSSLKIRPLKTKDFTKKLRMDATSTLSSQPLD
